Measurements: the supplement of paper PMC12042874
± gives the uncertainty stated by the source.

Test: amyloid nucleation score (Sup35N fusion, yeast selection) (log enrichment); library NNK3; higher = more nucleation; inactive = no reads after selection
In short: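 The nucleation score is the DiMSum log enrichment of output over input reads, centred on the mode score of non-aggregating sequences. Only sequences with 100 or more input reads were scored, using Illumina sequencing of input and output plasmid inserts. Psi-negative yeast expressing Sup35N fused to peptides of 20 random codons were induced 24 hours with 100 μM copper sulfate and grown 7 days at 30°C on medium lacking adenine and uracil.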

Substance	amyloid nucleation score
MMPIRKKMNHRVTWEILWQR	inactive
VYTMVTMIDGIELFRWNLWS	inactive
RCSWKTLPMYLMYCCTACHS	inactive
YGIYWSETFRNSLCKIVNIL	0.66 ± 0.24
GTDWCTRHMPGIDPCDSVVC	-0.557 ± 1
FCRSVLTLKKKLMFYTLRHC	inactive
MRTLYFPKCMTRLKMHVSSI	inactive
VCGILAISGLLT	inactive
ASFISCSIMYYFIVFCL	inactive
AVDQGGLAYRGRRC	inactive
VALLDSHGKWFMLGQFLNLK	inactive
LFSELKISSVWCDL	inactive
DADYLT	inactive
PYYNRGFCGYGFSQVMEVL	inactive
RQSCGFILQWDKLCFSRDRT	0.879 ± 0.25
RGAVLLKNWL	inactive
LFITLGAV	inactive
RGIHEIGVMLKSVSQLE	inactive
CQSPDALVRWGR	-0.087 ± 0.93
TGGRAPHRCVYSD	inactive
LISTWNMAYSLSLIMMDHHS	inactive
NLGSCVRVGQWISPRRA	inactive
ESMLIS	inactive
FALCFKRQIGRVSRVVCHVY	inactive

Substance	amyloid nucleation score
GMALPRVIVFIGNRITTNLG	2.31 ± 0.065
RVLYPVKVYRNDKMADWNN	inactive
LETFI	inactive
LNLAKQCMLPSFPSYMVWYF	inactive
KRLFVTFFLSSLRGNILMWG	inactive
VESLSVSAAL	inactive
LENSNFWSCSWISRYIYIRN	inactive
FYLTR	inactive
LRTSVFRVLVNSILVKNLIS	inactive
SRTLIIIVYFTTNIIVLEFY	inactive
RQCCCSLKHIVWQPLGLCRK	inactive
NGVLSSA	inactive
SCTYVSFVSSVRVTA	inactive
VDVDCYLLSKNM	inactive
VYVRG	inactive
FDFASFGKWVVVRFKCKTFT	inactive
EVSSTDL	inactive
VACITLCNIVQSIQMSIIMK	1.45 ± 0.061
LIGLRCMPLRV	inactive
FMGVT	inactive
MGFVHINGQCTQLLCCSRLK	1.94 ± 0.072
HVSAARMFSSYDPRKPGENM	inactive
FLYYIPWDYL	inactive
WSKVSHPYSALYSIMDRYT	inactive

Substance	amyloid nucleation score
WLFSTSI	inactive
AGSPCWSNHHYMTKRDCRFS	inactive
IPTIVPLAQLRVSVTSVWNL	inactive
VTICISPAHLFAS	inactive
EYHDALEYVVGDKAIFWSGD	inactive
FFVIRLNPTSLNCVFSWYLL	inactive
DNCFRKWT	inactive
RVVGRRSNYFVFLFRTLGRN	inactive
YYMLWSKCCEYSAHRN	inactive
RWSVCSCYSWERSGSRSQ	inactive
SAYKKASVWGLRLQSSRS	inactive
TSTELFRSGSVLRKPRMSSA	-0.255 ± 1.1
STPSLGTSF	inactive
KCMFMEDCPLPEWSDLEVGL	inactive
WSISIGYFP	inactive
KCCTGERYSLIGFLHFCGEM	0.891 ± 0.15
RLPLLTTKSGMSDTYSAP	inactive
VIFSITANIRAQFLFYCYRV	-0.083 ± 0.81
MGVSWIII	inactive
TYFRHYRKRSRSTSDLYLRL	inactive
MKRGWFELMIHWDYI	inactive
AIYAYTFAKRPSCEQATRVS	inactive
WLMIMDFKCLSPRTRSWRRM	inactive
FDLVNWYFQRNIVLRQSCCY	inactive

Substance	amyloid nucleation score
SFSLNRRWFNIGS	inactive
SACVGFMGPRNIRL	inactive
WQQAYRDRTSRSYWQPICAT	inactive
RLGCCGVSSEWVCRKYLLRG	inactive
LGKHRANHCMAGQDVAYKWV	-0.831 ± 1.1
DLTLIWMGGAAM	0.826 ± 0.22
LKSIYLLKWCPTSQLRTTSV	inactive
ILLWFSTVNWSFANEPGQIL	inactive
QMYSLWCKKCMFYDGCEGVS	inactive
DDRDSNSVTLDNSWSYSITV	inactive
IELRM	inactive
IGNAFFETRLVFGRH	1.86 ± 0.081
IDMFGSWFSCILGEKNQLGS	inactive
LNRLSCFSCPLFV	inactive
AIKVGASIINFLWLAHVWCP	inactive
EDFPRALVVRSYQWIYIQNV	1.24 ± 0.12
NDQKIPLARYLG	inactive
LFYFVWRVYKFILWSG	inactive
SFLVSSINNVQGFFSVNGYV	0.085 ± 0.26
RSSLLSRVLSEITHSWQLCA	inactive
DCGVVCSRNRNAEEEMLDSV	inactive
SPFCYRR	inactive
HYLLACSYDRFFSRSSAYSL	inactive
AWISGHVRVKLSFRLTFFLK	inactive

Substance	amyloid nucleation score
MPFGYICWIGVCFSHD	1.96 ± 0.081
YIYICLVFMSRCTKLYIELG	inactive
GRWGGDYFCVGNFMG	inactive
RFSWNENVGVDGQHLPEVER	inactive
WDWWN	inactive
RCVRVIFSVMGDWVFISKNE	inactive
SSTMLTNIWHHPNHGVVWDR	inactive
YVGFLSSCFF	1.19 ± 0.14
FSVPLVCDIYCLYTDVEYRH	2.53 ± 0.059
YQYCSISKHVFEWYGTSWMG	inactive
CGEYMRCLNVEYRCVGVKGS	inactive
IVGNLRDKDNYIVGRLEDSD	inactive
EFWLISFQSQLSFYCDFRYD	inactive
YWSNPYSYKFYEFMIHTALQ	inactive
YTDWGYDLRNGAGNGYIT	inactive
IQGVAWVQKAWFSRKAGVQI	inactive
YGFFKAARRMRIS	inactive
FNSYGKLWYFESKDRVYACD	-0.462 ± 1.4
PWSLWRTVKSPRKGGEQPRS	-0.317 ± 1.1
KTDTCRNIL	inactive
FYEHLVRSNFLSLRRMVRTV	inactive
FRMPDGELSGT	inactive
